This sample holds only a part of the variants without activity.
Legend:
biotinyl-Val-oxazolone = assay: self-aminoacylation, catalytic enhancement (BVO) (fold over background); higher = more active; k-Seq, kA / k0A0; sequences stand for … in GGGAAUGGAUCCACAUCUACGAAUUC…UUCACUGCAGACUUGACGAAGCUG
Outline: (§1)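 The uncatalyzed rate is the low-activity peak of a bimodal Gaussian fit, and catalytic enhancement is median kA divided by it. The kA values came from pseudo-first-order fits, with 1000 bootstraps, of per-sequence fraction reacted measured by streptavidin capture, triplicate qPCR and Illumina sequencing. Mutagenized RNA pools with a 21-nt variable region (0.43 μM) were reacted with each biotinyl-aminoacyl-oxazolone at 2–1250 μM in 50 μL HEPES/NaCl/KCl/MgCl2/CaCl2 buffer with 5% acetonitrile, pH 6.9–7.0, for 90 minutes at room temperature.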

biotinyl-Leu-oxazolone = assay: self-aminoacylation, catalytic enhancement (BLO) (fold over background); higher = more active; k-Seq, kA / k0A0; sequences stand for … in GGGAAUGGAUCCACAUCUACGAAUUC…UUCACUGCAGACUUGACGAAGCUG
Outline: as §1

biotinyl-Trp-oxazolone = assay: self-aminoacylation, catalytic enhancement (BWO) (fold over background); higher = more active; k-Seq, kA / k0A0; sequences stand for … in GGGAAUGGAUCCACAUCUACGAAUUC…UUCACUGCAGACUUGACGAAGCUG
Outline: as §1

biotinyl-Met-oxazolone = assay: self-aminoacylation, catalytic enhancement (BMO) (fold over background); higher = more active; k-Seq, kA / k0A0; sequences stand for … in GGGAAUGGAUCCACAUCUACGAAUUC…UUCACUGCAGACUUGACGAAGCUG
Outline: as §1

biotinyl-Phe-oxazolone = assay: self-aminoacylation, catalytic enhancement (BFO) (fold over background); higher = more active; k-Seq, kA / k0A0; sequences stand for … in GGGAAUGGAUCCACAUCUACGAAUUC…UUCACUGCAGACUUGACGAAGCUG
Outline: as §1

biotinyl-Ile-oxazolone = assay: self-aminoacylation, catalytic enhancement (BIO) (fold over background); higher = more active; k-Seq, kA / k0A0; sequences stand for … in GGGAAUGGAUCCACAUCUACGAAUUC…UUCACUGCAGACUUGACGAAGCUG
Outline: as §1

Sequence	self-aminoacylation (biotinyl-Val-oxazolone)	self-aminoacylation (biotinyl-Leu-oxazolone)	self-aminoacylation (biotinyl-Trp-oxazolone)	self-aminoacylation (biotinyl-Met-oxazolone)	self-aminoacylation (biotinyl-Phe-oxazolone)	self-aminoacylation (biotinyl-Ile-oxazolone)
CCACGUCAAACAAUCGGUCUG [Fam1A.1 aminoacylation ribozyme variant]	1.95	1.36	2.31	1.75	2.2	1.89
CCACGUUUCAAGCAAUCGGUC [Fam1B.1 aminoacylation ribozyme variant]	3.47	3.36	37.6	2.85	77.2	2.68
CCACUCUUCAAGCAAGCGGUC [Fam1B.1 aminoacylation ribozyme variant]	0.97	1.09	0.585	0.806	0.629	0.909
CCACUCUUCAAGCAAUCGAUC [Fam1B.1 aminoacylation ribozyme variant]	0.735	0.522	0.516	0.448	1.28	0.542
CCACUCUUCAAGUAAUCGGUC [Fam1B.1 aminoacylation ribozyme variant]	1.08	0.969	3.88	0.823	4.71	0.854
CCACUCUUCACGCAAUCGGUC [Fam1B.1 aminoacylation ribozyme variant]	1.21	1.13	0.952	1.05	0.819	1.08
CCACUUCAAACAAUCGGGCUG [Fam1A.1 aminoacylation ribozyme variant]	3.05	2.63	27.2	2.13	27.3	2.12
CCACUUCAAACAAUCGGUCAG [Fam1A.1 aminoacylation ribozyme variant]	1.04	1.03	9.79	0.992	13.7	1.01
CCACUUCAAACAAUCGGUCUA [Fam1A.1 aminoacylation ribozyme variant]	0.99	1.5	17.4	0.991	28.5	1.19
CCACUUCAAACAAUCGGUUUG [Fam1A.1 aminoacylation ribozyme variant]	1.83	2.57	39.5	1.37	80.3	1.39
CCACUUCAAACUAUCGGUCUG [Fam1A.1 aminoacylation ribozyme variant]	1.46	1.16	1.39	1.39	0.866	1.44
CCACUUCCAACAAUCGGUCUG [Fam1A.1 aminoacylation ribozyme variant]	1.11	1.15	1.6	1.11	1.13	0.991
CCACUUUUCAAGCAAUCGGUC [Fam1B.1 aminoacylation ribozyme variant]	1.32	1.1	1.06	1.1	1.58	1.25
CCAGACUUCAACCAAUCGGUC [Fam1B.1 aminoacylation ribozyme variant]	1.72	2.1	31.4	1.63	51.2	1.39
CCAGACUUCAAGCAAUCAGUC [Fam1B.1 aminoacylation ribozyme variant]	0.837	1.03	5.08	0.826	12.6	1.04
CCAGACUUCAAGCAAUCGAUC [Fam1B.1 aminoacylation ribozyme variant]	0.778	0.614	0.639	0.559	1.51	0.714
CCAGACUUCAAGCGAUCGGUC [Fam1B.1 aminoacylation ribozyme variant]	1.8	1.83	1.82	1.17	1.63	1.36
CCAGACUUCAGGCAAUCGGUC [Fam1B.1 aminoacylation ribozyme variant]	1.64	1.57	1.83	1.36	1.79	1.45
CCAGAUUUCAAGCAAUCGGUC [Fam1B.1 aminoacylation ribozyme variant]	1.4	1.38	2.91	1.48	3.36	1.5
CCAUACAUCAAGCAAUCGGUC [Fam1B.1 aminoacylation ribozyme variant]	0.981	0.841	0.687	0.792	1.06	1.04
CCAUACUUCAAGCAAUCCGUC [Fam1B.1 aminoacylation ribozyme variant]	1.12	0.949	0.766	0.829	0.96	1.15
CCAUACUUCAAGCGAUCGGUC [Fam1B.1 aminoacylation ribozyme variant]	1.25	0.976	0.926	1.02	1.17	1.15
CCCCACUUCAAGCAAUCCGUC [Fam1B.1 aminoacylation ribozyme variant]	1.6	1.02	2.64	1	3.48	1.62
CCCCACUUCAAGCAAUCGGGC [Fam1B.1 aminoacylation ribozyme variant]	2.92	2.43	5.69	3.15	4.2	2.37
CCCCACUUCAAGCAAUCGGUC [Fam1B.1 aminoacylation ribozyme variant]	1.83	1.97	31.5	1.48	57.5	1.54
CCCCUUCAAACAAUCGGUCUG [Fam1A.1 aminoacylation ribozyme variant]	2.44	3.29	72.5	2.05	185	1.79

Sequence	self-aminoacylation (biotinyl-Val-oxazolone)	self-aminoacylation (biotinyl-Leu-oxazolone)	self-aminoacylation (biotinyl-Trp-oxazolone)	self-aminoacylation (biotinyl-Met-oxazolone)	self-aminoacylation (biotinyl-Phe-oxazolone)	self-aminoacylation (biotinyl-Ile-oxazolone)
CCGCACUGCAAGCAAUCGGUC [Fam1B.1 aminoacylation ribozyme variant]	1.81	1.17	1.42	1.21	1	1.52
CCGCACUUCAAGCACUCGGUC [Fam1B.1 aminoacylation ribozyme variant]	1.79	1.64	1.55	1.44	1.93	1.38
CCGCACUUCAAGCAUUCGGUC [Fam1B.1 aminoacylation ribozyme variant]	2.28	1.62	1.76	1.85	1.88	2.17
CCGCACUUCAGGCAAUCGGUC [Fam1B.1 aminoacylation ribozyme variant]	2.87	2.33	2.88	1.98	6.33	1.76
CCGGACUUCAAGCAAUCGGUC [Fam1B.1 aminoacylation ribozyme variant]	1.71	2.03	26.3	1.31	39.3	1.5
CCUCAAUUCAAGCAAUCGGUC [Fam1B.1 aminoacylation ribozyme variant]	0.943	1.04	3.57	0.916	6.19	1.07
CCUCACAUCAAGCAAUCGGUC [Fam1B.1 aminoacylation ribozyme variant]	0.973	0.726	1.05	0.749	1.77	0.87
CCUCACUUCAAGCAAUCGCUC [Fam1B.1 aminoacylation ribozyme variant]	1.18	1.36	0.912	1.15	1.27	1.16
CCUCACUUCAAGCAAUCGGCC [Fam1B.1 aminoacylation ribozyme variant]	2.39	1.59	5.38	1.53	5.49	1.9
CCUCACUUCAAGCAAUCGGUC [Fam1B.1 aminoacylation ribozyme variant]	1.21	1.58	22.4	1.07	55.7	1.07
CCUCACUUCAAGCAAUCGGUU [Fam1B.1 aminoacylation ribozyme variant]	1.61	1.7	6.83	1.45	9.36	1.34
CCUCACUUCAAGCAAUCUGUC [Fam1B.1 aminoacylation ribozyme variant]	0.515	0.313	0.563	0.343	1.03	0.458
CCUCACUUCAAGCAAUUGGUC [Fam1B.1 aminoacylation ribozyme variant]	0.606	0.506	0.673	0.562	1.67	0.654
CCUCACUUCAGGCAAUCGGUC [Fam1B.1 aminoacylation ribozyme variant]	0.932	0.947	0.952	0.951	1.59	0.856
CCUCACUUCGAGCAAUCGGUC [Fam1B.1 aminoacylation ribozyme variant]	1.04	1.04	1.16	0.881	2.23	1.08
CCUCAGUUCAAGCAAUCGGUC [Fam1B.1 aminoacylation ribozyme variant]	1.03	1.36	3.37	1.17	5.46	1.12
CGACACAUCAAGCAAUCGGUC [Fam1B.1 aminoacylation ribozyme variant]	1.13	1.09	0.828	0.811	1.47	1.01
CGACACUACAAGCAAUCGGUC [Fam1B.1 aminoacylation ribozyme variant]	1	0.755	0.675	0.769	0.638	0.935
CGACACUUCAACCAAUCGGUC [Fam1B.1 aminoacylation ribozyme variant]	1.6	1.65	13.4	1.61	18.2	1.38
CGACACUUCAAGCAAACGGUC [Fam1B.1 aminoacylation ribozyme variant]	0.76	0.537	0.612	0.687	0.979	0.814
CGACACUUCAAGCAAUCGGCC [Fam1B.1 aminoacylation ribozyme variant]	3.32	2.84	3.53	1.79	3.39	3.11
CGACACUUCAAGGAAUCGGUC [Fam1B.1 aminoacylation ribozyme variant]	1.73	1.89	1.84	1.42	3.19	2.39
CGACAUUUCAAGCAAUCGGUC [Fam1B.1 aminoacylation ribozyme variant]	1.17	1.06	1.33	1.09	1.28	1.18
CGACGUCAAACAAUCGGUCUG [Fam1A.1 aminoacylation ribozyme variant]	1.66	1.24	1.82	1.84	4.02	1.25
CGACUACAAACAAUCGGUCUG [Fam1A.1 aminoacylation ribozyme variant]	1.15	0.926	1.31	1.22	2.44	1.09

— the supplement of paper PMC9233669
